The values that follow come from the DeepSol protein solubility set.

The nature of the data set: soluble on expression in E. coli; label from the status in PepcDB or PDB records.
Consider “MSLNIMDFNVKKLAADAGTFLSRAVQFTEEKLGQAEKTELDAHLENLLSKAECTKIWTEKIMKQTEVLLQPNPNARIEEFVYEKLDRKAPSRINNPELLGQYMIDAGTEFGPGTAYGNALIKCGETQKRIGTADRELIQTSALNFLTPLRNFIEGDYKTIAKERKLLQNKRLDLDAAKTRLKKAKAAETKSSSEQELRITQSEFDRQAEITRLLLEGISSTHAHHLRCLNDFVEAQMTYYAQCYQYMLDLQKQLGSFPSNYLSNNNQTSGTPVPYALSNAIGPSAQASTGSLVITCPSNLNDLKESSNNRKARVLYDYDAANSTELSLLADEVITVFSVVGMDSDWLMGERGNQKGKVPITYLELLNEGHHHHHH”, for which the “soluble on expression in E. coli” value is “soluble”.

Take “MSLNISTGLLIVESPTKAKTIAKMFSRPSVRIRNKVPVYETIIVDGNQIYVLDIVASKGHIVDLTLEDIGYYGIKVEDDGTIKPYYDLIKKCLDCNKIFSSASDKCPYCGSANLQSAQTTINLLRELALSVDKVFIASDPDTEGEKIAYDLASFLSPYNSNVYRVVYHEITKKAILEALRNPKKINTNLVMSQIVRRIEDRWIGFTLSNLLKTKFNGHNHGAGRVQTPVLGWIVNKTIKYKSAMGHVVYIDIAGYSIKKYFSEKRKVEEYINNLQVARIEKISEEKILLSPLPPFTTDTLLIEANMKYKLPANLVMKIAQDLFEAGLITYHRTDSTHISSVGIEIAKEYLQKQALIKEFVPRSWESSEEGAHEAIRPTRAIDVNELIQEIEENPYKYSIRFSKLHLLIYDLIFKRFIASQMSHAVGTKSRYLIKLGKDDNVDVELLSNAEGGFIKVYPVKVYNLPVGEIQPKVNITKGSSEQLLSYSDVISLMKSKGIGRPSTYAKTIENLMKHGYIVSSKRKSYLIATNRGISVYQFLSSKFYDLVSESTTSRLMTKLDDIALSKLNASTVLLEIFSEISTLVNPLKSEEGHHHHHH”: the “soluble on expression in E. coli” value is “soluble”.

Turning to “MSLNKKRPLKGRFLHITDIHPDPHYKTGSTFDSGCHRKPKKDGKSEGKKATENERGNEDLDDKEFDTLIKNEDLAGKWGTAVSDCDCPMSLVNITFDWLKEEWANEVDFVVWTGDNARHDIDRRIPRTPKEIFDSNRMIVDRMLDAFGRDMPIVPSIGNNDIYPHNVLAAGPSRITEEFLLIWKHFIPSEAAHVFERGAYFSVEVIPDRLAVISLNTLFWYDANTLVDGCRDHSNDPGALEMDWLEVQLNNFRQRGMQVWLTGHVPPHMNHYYDNCYLRYGDLALRYQDTIVGHLFGHMNVDHFFFIDVDELEATSELTSTSSNTTLSDLPLLHGPRLPRPGPGKYTAMGRSGARKLEEELRKDEGHHHHHH”, the “soluble on expression in E. coli” value was “soluble”.

With “MSLNKVRLGIIGLGAQGGTYAGFINDNKIANLELGAICDIDPEKRTVAAEKYPNVPFYDNYIDMLESGDVDAIVTTVPHYLHTEIGKEALSRDIHALLEKPGDIYAEKVKEISDLAASKPNLTFGIFFNQRTNPLYQKVKSLIDNGEIGEIRRTNWIITTWWRPQAYYDQSSWRATWSGEGGGVLVNQAPHQIDLLQWLCGLPKKVYANVKYGYQRDLNVDDDVTTVLDYGNGATGVFITCTHDIIGTDRLEITGDKGKILVEDSKKITLKSLNQSETQMNQDMTWEEVAELFKGNGMGDIYKEETFEFESVWGQQHISVLENFTANILDGTPLIAPGSDGINEGHHHHHH”, the “soluble on expression in E. coli” value is “soluble”.

Regarding “MSLNLVSLRVITDDVARLVGFYERATGLRATWATEDFAELRTPSGTLAIGSTRTVPLFAPGSARPADNRSVIVEFLVDDVDAVHRNLTGFVDEFVREPTTMPWGNRALLFRDPDGNLVNFFTPVTEGHHHHHH”, the “soluble on expression in E. coli” value is “not soluble”.

For “MSLNNDDSPALTLDEYKQAQAIVILGGGSYQTKELYAETASGAPQLERLRYAAFLQKETGLPILTTGYSLIGISEGDLMAKELNQFFNVPTQWIENKARNTEENASFTKNILIKDHIQKIILVTNQWHMKRAKYLFEKQGFDVLPAAAASYGSKGNLSAKSFIPDLGALNSNMVLLKEWIGYWKAHYVEEGHHHHHH”, the “soluble on expression in E. coli” value was “not soluble”.

“MSLNNIAPQSPVMRRLTLQDNPAIASVIRQVYAEYGLTADKGYTVADPNLDELYQVYSQPGHAYWVVEYNGEVVGGGGIAPLTGSEADICELQKMYFLPAIRGKGLAKKLALMAMEQAREMGFKRCYLETTAFLKEAIALYEHLGFEHIDYALGCTGHVDCEVRMLRELEGHHHHHH”: the “soluble on expression in E. coli” value is “not soluble”.

Consider “MSLNNLEKASRLIDEENNYYARSARINYYDLVINHAHGATLIDVDGNEYIDLLASASAINVGHTNERVVKAISRQAQKLIHYTPAYFHHVPGIELSKRLAELAPGNSPKMVSFGNSGSDANDAIIKFSRAYTSRQYIVSYMGSYHGSNYGSQSLSGTSLNMTRKIGPMLPGVVHVPYPDLYRRYAGETEHDVAIRYFNAFKAPFESFLPADETACVLVEPIQGDGGIVKAPEEYMQLVYKFCHDNGILFAVDEVNQGLGRTGKMWGIQQYKDIEPDLMSVGKSLASGMPLSAVVGKKDIMQSLDAPAHIFTTSGNPVCAAASLATLNVIRDDHLVEKSAKDGEYAKQRFLEMQRHHPIIGDVRMWGLNGGIELVKDPKTKEAENDAATKVIYYAFAHGVVIITLAGNILRFQPPLVISHKQLDKALQVLDDAFTAVEQNKVEVPKDTGKIGWEGHHHHHH”, for which the “soluble on expression in E. coli” value was “not soluble”.

Regarding “MSLNQFTTDLVQALVQKENVTEIFRSHLENAVNTLLASELTAFLDYEKYDRIGFNTGNSRNGSYERTLHTEFGELHLVIPRDRNGDFKQQTVAPYKRSNDTLEAFVIHMFQKGVTTAEIAHLMERMYGHHYTPQTISNMTKVMSEQVEAFRDRTLCARYACVYLDATYIALKRDTVSKEAVYIAVGIREDGSKEVLGYTIAPNESAFVWKELLEDIKSRGVEEILLFISDGLKGISDSVFSIYPASSYQTCCVHLSRTIAHKVRVSDRAEICEDFKSVYRAESLEMGQQALHSFIEKWKSKYPKVTKPLLNNSYLFTFYSFPKSIWRSIYSTNLIESFNKQIKKYSKRKEQFPNEESLERFLVSQFDQYNQRFATRCHIGFDQARAELQMMFKTNEGHHHHHH”, the “soluble on expression in E. coli” value is recorded as “soluble”.

As for “MSLNQLLFVPLGGIGEIGMNLALYGYGPEHAREWIAVDVGISFAGADFPGVDLVFPDIRFIEELGDKLKGIVITHAHEDHYGALLDLWPKMKVPVYATAFTAAMLAAKREGEPGAPKIPVTQFSAGDRFKVGPFEIEAINVTHSIPEPVALAIRSPAGTVVHTGDWKIDPTPALGAPTDEKRLREIGDEGVLAMICDSTNALREGVSPSESEVSASLGEIIRGAKGRVAVTTFSSNVGRIRSIAAAARDAGRQVLLMGRSMRRVVDVSTELGYMDGIPPFLGEQDFGYIPPEKAVIILTGSQGETRAALARLSRDEHPTVALSQGDLVIFSSRAIPGNEKLIIDIKNALIERGVQILEDGEKLVHVSGHPRRSEMRQMYEWVRPTIAVPAHGEAAHLSAHAKLARELGVKQVVPARNGKMVQLSPGAASVIADVPVGRLFKDEGHHHHHH”, the “soluble on expression in E. coli” value is recorded as “soluble”.

Take “MSLNQPDLFSSTSGTVGGLAVQSILEGFKSHYARDQETELSLEEYLSLAKQDPMAYASPAERMLAAIGEPELIDTRNDPRLSRLFSNRLVRRYPAFKEFYGLEDVIDQIVAFFKHAAQGLEERKQILYLLGPVGGGKSSIAERLKVLMEAYPIYALKGSPVNESPLGLFHPDRFGDTLEQEYGIARRYLCGIMSPWAVKRLREFDGDISQFRVVRLNPSVLRQVAIAKTEPGDENNQDISSLVGKVDIRKLERYAQDDPDAYSYSGGLCLANQGLLEFVEMFKAPIKMLHPLLTATQEGNFKGTEGFSAIPFNGMILAHSNESEWQTFRNNKHNEAFLDRIYIVKVPYCLQVSEEVCIYEKLLRHSSLAQAPCAPGTLDMMAQFSVLTRLKEPENSSIYSKLRVYDGESLKDVDPKAKALQEYKDYAGTDEGMTGVSTRFAYKILSSVFNYDQTEVAANPVHLMYVLEQRIAREDFPEETRRRYLEFIKGYLAPRYAEFIGKEIQTAYLESYSEYGQNIFDRYVTFADCWIQDEEFRDPETGESFDRSALNDELEKIEKPAGIANPKDFRNEIVNFVLRARANNAGRNPNWTSYEKLREVIEKKMFSNTEDLLPVISFNAKASAEDRSKHQSFVDRMVDKGYTEKQVRLLCEWYLRVRKSSEGHHHHHH”: the “soluble on expression in E. coli” value is given as “soluble”.

Consider “MSLNRAFRREQYARMVALSEPLIADYLGVRLPEPVSRIFVFDRREWLEANIVSFSQLFRPIEEMYEKNGGGRGALGVLMNDVSSKLLGVQIGGLLGYLAQRVLGQYDLSLLSAEATGGSLYFVEPNIARVQQQLGLSDEDFRLWITLHEMTHAFEFEAYPWVRTYFRELLEQNFALVSGQMLSSGNSLVDMLMRLLQGEGHHHHHH”, for which the “soluble on expression in E. coli” value is “not soluble”.

Consider “MSLNRFFNRELSWLAFNTRVLNEAKDESLPLLERLKFLAIYDTNLDEFYMIRVAGLKQLYEHKIASKGIDGASPEEQLEKIKHYLAHEIEERELEFQKIQALLFKKGLCITPYNELNLEQKAKAKTYFKEQLYALVLPFKLDSSHTFPPLANLTFALFARIKDKETQIISYALIKLPSFIFRFVELEKGLFVLAEEIVEAHLEELFLEHEILDCMAFRVTCDADIAITEDEAHDYADLMSKSLRKRNQGEIVRLQTQKGSQELLKTLLASLRSFQTHSYKKHKLTGMHIYKSAIMLNLGDLWELVNHSDFKALKSPNFTPKIHPHFNENDLFKSIEKQDLLLFHPYESFEPVIDLIEQAASDPATLSIKMTLYRVGKHSPIVKALIEAASKIQVSVLVELKARFDEESNLHWAKALERAGALVVYGVFKLKVHAKMLLITKKTDNQLRHFTHLSTGNYNPLSAKVYTDVSFFSAKNEIANDIIKLFHSLLTSSATNSALETLFMAPKQIKPKIIELIQNEMNHQQEGYIILKANALVDSEIIEWLYQASQKGVKIDLIIRGICCLKPQVKGLSENIRVYSIVGKYLEHARIYYFKHENIYFSSADLMPRNLERRVELLIPATNPKIAHKLLHILEIQLKDTLKRYELNSKGRYIKVSNPNDPLNSQDYFEKQALKTFEGHHHHHH”, for which the “soluble on expression in E. coli” value was “soluble”.

Consider “MSLNRKLLTADERQARDTERRSQLDVALMEGVQAILDSDSFKAVLAANAKFHSYSVNNAMLIWLQNPAAERVAGFHTWRKLGRSVKKGAKGIMIYAPRVATNVDAATGSEETHVYFGIEHVFDISQTEGDDIPTLDCPVLTEERGHDVYDRLVTYATRDGLTVSSDVAHELSEAMGYYSAVSKRIWVRPTAKAQMLKTLIHEIAHHLTEGKHTREAHETIAEGVAFQVCACLGIDSGERSFPYIAGWSASEGGTALIKQVLGHIQAITKQVMAIVEPADEANEGAEGHHHHHH”, for which the “soluble on expression in E. coli” value is recorded as “soluble”.

“MSLNRRELLERISEYQFACIELNLYLDNNPRDKKALDSYNRYCDKFTQAVCDYESKYGALTNFGYESSEYPWSWISEPWPWDKSFYK”: the “soluble on expression in E. coli” value is “soluble”.

Consider “MSLNTQDFLAGYTKRFVDNKEEDMSLDEYLELCKTDPTAYANPAERLLMAIGEPELIDTRHDPVLSRIFSNKIIHHYEVFEDFYGMEEPIEQIVGFLKHAAQGLEETKQVLYLLGPVGGGKSSIAEKLKDLMERVPFYAIKGSPVFESPLSLFNPQEDGELLRERFGIPTRYLRYLMSPWAVKRLQEYNGDISKFRVIKVKPSRLKQIAIAKTEPGDENNQDISSLVGKVDIRKLEEFSQDDPDAYSYSGGLCRANRGLLEFVEMFKAPIKVLHPLLTATQEGNYNATEGLSAIPFEGIILAHSNESEWQSFRNNKNNEAFIDRINIVKVPYCLRVSEEIKIYQKLIHNSSLANAPCAPGTLDMLAQFSVLTRLKEPQNSSIYSKMRVYNGESLKDTDPKAKSYQEYRDFAGVDEGMSGISTRFAFKILSKVFNFDHTEVAANPVHLMYVLERQIEQEQFPQELHETYLNFIKEYLATKYVDFIGKEIQTAYLESYSEYGQNIFDRYITYADFWIQDQDYRDPDTGEIFDRALLNLELEKIEKPAGISNPKDFRNEVVNFVLRARANNRGKNPVWNSYEKLKSVIEKKMFTNTEDLLPVISFNAKASEEDKKKHEEFISRMVEKGYTRKQVRLLCEWYLRVRKSQEGHHHHHH”, for which the “soluble on expression in E. coli” value was “soluble”.
